In patent US7531643 one finds absorbance in ELISA (raw data, CF1-hIAP-55-8), Specific binding (absorbance, CF1-pCOS1 subtracted) and percentage (%) of apoptosis of Jurkat cells, PI staining, flow cytometry (8G2 control supernatant 7.43%) data, which are given here for two molecules.

The target in assay [1] is human Integrin Associated Protein (IAP) (human) (UniProt Q08722). The experiment in a line: cell ELISA on PLP-fixed CF-1 cells expressing human IAP, antibody at 3 µg/ml. (An ELISA detects its analyte on a solid surface through an enzyme-linked reagent.)
Chain of UniProt Q08722 (Q08722 19-323): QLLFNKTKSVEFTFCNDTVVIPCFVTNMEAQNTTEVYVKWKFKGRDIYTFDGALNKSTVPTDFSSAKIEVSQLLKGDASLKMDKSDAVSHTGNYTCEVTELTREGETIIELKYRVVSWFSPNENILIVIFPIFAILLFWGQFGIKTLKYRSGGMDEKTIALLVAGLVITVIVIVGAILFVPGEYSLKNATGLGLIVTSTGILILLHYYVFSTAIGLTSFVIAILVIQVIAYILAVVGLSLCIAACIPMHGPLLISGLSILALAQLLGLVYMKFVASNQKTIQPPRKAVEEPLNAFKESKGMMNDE
Assay [2] has the same target. The experiment in a line: cell ELISA, CF1-hIAP-55-8 minus CF1-pCOS1, antibody at 3 µg/ml.
The target is the same in assay [3]. The experiment in a line: cell-based or functional assay.
The target is the same in assay [4]. The experiment in a line: cell ELISA on PLP-fixed CF-1 cells expressing human IAP, hybridoma culture supernatant.
Assay [5] shares this target. The experiment in a line: cell ELISA, CF1-hIAP-55-8 minus CF1-pCOS1, hybridoma culture supernatant.

In turn, “human IAP-recognizing anti-CD47 antibody (PharMingen)” showed an absorbance in ELISA (raw data, CF1-hIAP-55-8) in assay [1] of 0.456 absorbance. This molecule also displayed a Specific binding (absorbance, CF1-pCOS1 subtracted) in assay [2] of 0.296 absorbance.

B1: monoclonal antibody of hybridoma 7D2-E3 (antibody, from another filing, IgG2a)
scFv: QVQLQQSGPELVKPGASVKMSCKASGYTFANHVIHWVKQKPGQGLEWIGYIYPYNDGTKYNEKFKDKATLTSDKSSTTAYMDLSSLASEDSAVYYCARGGYYTYDDWGQGTTLTVSSGGGGSGGGGSGGGGSDVVMTQSPLSLPVSLGDQASISCRSSQSLVHSNGKTYLHWYLQKPGQSPKLLIYKVSNRFSGVPDRFSGSGSVTDFTLMISRVEAEDLGVYFCSQSTHVPYTFGGGTKLEIKDYKDDDDK
Molecule B1 gave a percentage (%) of apoptosis of Jurkat cells, PI staining, flow cytometry (8G2 control supernatant 7.43%) in assay [3] of 9.84%. Also, the absorbance in ELISA (raw data, CF1-hIAP-55-8) in assay [4] came out at 0.568 absorbance. Further, the Specific binding (absorbance, CF1-pCOS1 subtracted) in assay [5] was determined as 0.379 absorbance.
